Test: NCT03131687: nausea, vomiting and diarrhea, new events per interval
Assay type: in vivo, human
Description: Clinical Study (NCT03131687) Supporting Maintenance Dose Embodiments A 6-month (26-week) Phase 2 double-blind clinical study is designed to evaluate the safety, efficacy, and PK/PD of 4 dose levels (1 mg, 5 mg, 10 mg and 15 mg respectively) of tirzepatide once weekly by subcutaneous injection compared with dulaglutide 1.5 mg. once weekly (QW) and placebo QW in patients with T2DM who have inadequate glycemic control with diet and exercise with or without a stable dose of metformin. Tirzepatide dose is up-titrated to the maintenance dose using the following weekly dose increments:
The study also has a 4-week follow up period. In addition to safety and efficacy for treating T2DM, efficacy endpoints include the effect of tirzepatide on HbA1c, FBG, body weight, lipids, and waist circumference compared with placebo and with dulaglutide 1.5 mg. The study also evaluates the effect of tirzepatide on GI tolerability, hypoglycemia, hypersensitivity reactions, and pancreatic safety, as well as the development of treatment-emergent anti-drug antibodies. Model-based dose response analyses are performed to predict potential for significant HbA1c lowering and weight loss in longer studies. Statistical Analyses: Efficacy: The primary efficacy outcome of HbA1c change from baseline to the 26-week endpoint is analyzed using a Bayesian dose-response model. Analyses are performed on the intention to treat population (mITT) analysis set. Supportive analysis of the primary efficacy outcome for the mITT dataset are the model for post-baseline measures (MMRM) with body mass index (BMI) (<30 kg/m^2, ≥30 kg/m^2), metformin use, treatment, visit, and treatment-by-visit interaction as fixed effects, baseline HbA1c as a covariate, and patient as a random effect. The mean weight change from baseline at 12 and 26 weeks, along with the mean change from baseline of HbA1c at 12 weeks, is analyzed using similar dose-response models as the primary analyses. The percentages of patients with ≥5% or ≥10% body weight loss, reaching the HbA1c target of ≤6.5% or ≤7.0% at 26 weeks, or requiring rescue therapy are analyzed using logistic regression with fixed effects of treatment and strata, and baseline as a covariate. The changes from baseline in FBG (fasting blood glucose), SMBG (self-monitored blood glucose) levels, waist circumference, and mean percentage change in lipids from baseline to 12 and 26 weeks are analyzed using a similar MMRM to the one used for the primary analyses. Table Abbreviations: Dula 1.5 mg=dulaglutide 1.5 mg once weekly; LY means tirzepatide, and LY 1 mg=tirzepatide 1 mg once weekly; LY 5 mg=5 mg once weekly; LY 10 mg=escalation dose group tirzepatide once weekly with highest dose of 10 mg; LY 15 mg=escalation dose group of tirzepatide once weekly with highest dose 15 mg; LOCF=last observation-carried-forward; N=number of patients; pbo=placebo; Week 26=mITT on-treatment data at Week 26 excluding data after study drug discontinuation or rescue drug initiation; mITT=modified intent-to-treat; SD=standard deviation. For Table 4, n=number of patients in the population with baseline and post-baseline value at the specified time point. For Table 6, LY10 mg=escalation dose group tirzepatide, once weekly with highest dose of 10 mg; escalation dose: (5 mg weeks 0 and 1), LY15 mg=escalation dose group tirzepatide, once weekly with highest dose of 15 mg; escalation dose: (5 mg weeks 0 and 1; 10 mg weeks 2 to 5); N=number of patients in specified group, m=number of patients who experienced new event during interval, FolUp=follow up, T/Wk=Time range, (week) and %=means percent patients spending at least some time in treatment group who experienced new event during interval. For Table 7, n is the number of patients with events meeting the criteria; N is number of patients in the population; % is percent of patients in treatment group experiencing the event.

[1] = LY10 mg (tirzepatide 5 mg weeks 0 and 1, then 10 mg once weekly), N = 51, Fol Up (follow up)
[2] = LY10 mg (tirzepatide 5 mg weeks 0 and 1, then 10 mg once weekly), N = 51, T/Wk 0
[3] = LY10 mg (tirzepatide 5 mg weeks 0 and 1, then 10 mg once weekly), N = 51, T/Wk 1
[4] = LY10 mg (tirzepatide 5 mg weeks 0 and 1, then 10 mg once weekly), N = 51, T/Wk 2
[5] = LY10 mg (tirzepatide 5 mg weeks 0 and 1, then 10 mg once weekly), N = 51, T/Wk 3
[6] = LY10 mg (tirzepatide 5 mg weeks 0 and 1, then 10 mg once weekly), N = 51, T/Wk 4
[7] = LY10 mg (tirzepatide 5 mg weeks 0 and 1, then 10 mg once weekly), N = 51, T/Wk 5
[8] = LY10 mg (tirzepatide 5 mg weeks 0 and 1, then 10 mg once weekly), N = 51, T/Wk 6
[9] = LY10 mg (tirzepatide 5 mg weeks 0 and 1, then 10 mg once weekly), N = 51, T/Wk 7
[10] = LY10 mg (tirzepatide 5 mg weeks 0 and 1, then 10 mg once weekly), N = 51, T/Wk 8
[11] = LY10 mg (tirzepatide 5 mg weeks 0 and 1, then 10 mg once weekly), N = 51, T/Wk 9
[12] = LY10 mg (tirzepatide 5 mg weeks 0 and 1, then 10 mg once weekly), N = 51, T/Wk 10
[13] = LY10 mg (tirzepatide 5 mg weeks 0 and 1, then 10 mg once weekly), N = 51, T/Wk 11
[14] = LY10 mg (tirzepatide 5 mg weeks 0 and 1, then 10 mg once weekly), N = 51, T/Wk 12
[15] = LY10 mg (tirzepatide 5 mg weeks 0 and 1, then 10 mg once weekly), N = 51, T/Wk >12 < 16
[16] = LY10 mg (tirzepatide 5 mg weeks 0 and 1, then 10 mg once weekly), N = 51, T/Wk >16 ≤ 20
[17] = LY10 mg (tirzepatide 5 mg weeks 0 and 1, then 10 mg once weekly), N = 51, T/Wk >20
[18] = LY15 mg (tirzepatide 5 mg weeks 0 and 1; 10 mg weeks 2 to 5; then 15 mg once weekly), N = 53, Fol Up (follow up)
[19] = LY15 mg (tirzepatide 5 mg weeks 0 and 1; 10 mg weeks 2 to 5; then 15 mg once weekly), N = 53, T/Wk 0
[20] = LY15 mg (tirzepatide 5 mg weeks 0 and 1; 10 mg weeks 2 to 5; then 15 mg once weekly), N = 53, T/Wk 1
[21] = LY15 mg (tirzepatide 5 mg weeks 0 and 1; 10 mg weeks 2 to 5; then 15 mg once weekly), N = 53, T/Wk 2
[22] = LY15 mg (tirzepatide 5 mg weeks 0 and 1; 10 mg weeks 2 to 5; then 15 mg once weekly), N = 53, T/Wk 3
[23] = LY15 mg (tirzepatide 5 mg weeks 0 and 1; 10 mg weeks 2 to 5; then 15 mg once weekly), N = 53, T/Wk 4
[24] = LY15 mg (tirzepatide 5 mg weeks 0 and 1; 10 mg weeks 2 to 5; then 15 mg once weekly), N = 53, T/Wk 5
[25] = LY15 mg (tirzepatide 5 mg weeks 0 and 1; 10 mg weeks 2 to 5; then 15 mg once weekly), N = 53, T/Wk 6
[26] = LY15 mg (tirzepatide 5 mg weeks 0 and 1; 10 mg weeks 2 to 5; then 15 mg once weekly), N = 53, T/Wk 7
[27] = LY15 mg (tirzepatide 5 mg weeks 0 and 1; 10 mg weeks 2 to 5; then 15 mg once weekly), N = 53, T/Wk 8
[28] = LY15 mg (tirzepatide 5 mg weeks 0 and 1; 10 mg weeks 2 to 5; then 15 mg once weekly), N = 53, T/Wk 9
[29] = LY15 mg (tirzepatide 5 mg weeks 0 and 1; 10 mg weeks 2 to 5; then 15 mg once weekly), N = 53, T/Wk 10
[30] = LY15 mg (tirzepatide 5 mg weeks 0 and 1; 10 mg weeks 2 to 5; then 15 mg once weekly), N = 53, T/Wk 11
[31] = LY15 mg (tirzepatide 5 mg weeks 0 and 1; 10 mg weeks 2 to 5; then 15 mg once weekly), N = 53, T/Wk 12
[32] = LY15 mg (tirzepatide 5 mg weeks 0 and 1; 10 mg weeks 2 to 5; then 15 mg once weekly), N = 53, T/Wk >12 < 16
[33] = LY15 mg (tirzepatide 5 mg weeks 0 and 1; 10 mg weeks 2 to 5; then 15 mg once weekly), N = 53, T/Wk >16 ≤ 20
[34] = LY15 mg (tirzepatide 5 mg weeks 0 and 1; 10 mg weeks 2 to 5; then 15 mg once weekly), N = 53, T/Wk >20

tirzepatide [LY]
2.1%: Nausea Vomiting and Diarrhea: % patients who experienced new event during interval [1] | Nausea Vomiting and Diarrhea: % patients who experienced new event during interval [16] | Nausea Vomiting and Diarrhea: % patients who experienced new event during interval [17] | Nausea Vomiting and Diarrhea: % patients who experienced new event during interval [31] | Nausea Vomiting and Diarrhea: % patients who experienced new event during interval [32] | Nausea Vomiting and Diarrhea: % patients who experienced new event during interval [33] | Nausea Vomiting and Diarrhea: % patients who experienced new event during interval [34]
32.1%: Nausea Vomiting and Diarrhea: % patients who experienced new event during interval [19]
3: Nausea Vomiting and Diarrhea: m, number of patients who experienced new event during interval [6] | Nausea Vomiting and Diarrhea: m, number of patients who experienced new event during interval [21] | Nausea Vomiting and Diarrhea: m, number of patients who experienced new event during interval [23] | Nausea Vomiting and Diarrhea: m, number of patients who experienced new event during interval [26]
5.8%: Nausea Vomiting and Diarrhea: % patients who experienced new event during interval [21]
20%: Nausea Vomiting and Diarrhea: % patients who experienced new event during interval [2]
5.9%: Nausea Vomiting and Diarrhea: % patients who experienced new event during interval [23] | Nausea Vomiting and Diarrhea: % patients who experienced new event during interval [26]
4.0%: Nausea Vomiting and Diarrhea: % patients who experienced new event during interval [7] | Nausea Vomiting and Diarrhea: % patients who experienced new event during interval [27]
3.9%: Nausea Vomiting and Diarrhea: % patients who experienced new event during interval [3] | Nausea Vomiting and Diarrhea: % patients who experienced new event during interval [4] | Nausea Vomiting and Diarrhea: % patients who experienced new event during interval [25]
1: Nausea Vomiting and Diarrhea: m, number of patients who experienced new event during interval [1] | Nausea Vomiting and Diarrhea: m, number of patients who experienced new event during interval [5] | Nausea Vomiting and Diarrhea: m, number of patients who experienced new event during interval [8] | Nausea Vomiting and Diarrhea: m, number of patients who experienced new event during interval [10] | Nausea Vomiting and Diarrhea: m, number of patients who experienced new event during interval [14] | Nausea Vomiting and Diarrhea: m, number of patients who experienced new event during interval [15] | Nausea Vomiting and Diarrhea: m, number of patients who experienced new event during interval [16] | Nausea Vomiting and Diarrhea: m, number of patients who experienced new event during interval [17] | Nausea Vomiting and Diarrhea: m, number of patients who experienced new event during interval [24] | Nausea Vomiting and Diarrhea: m, number of patients who experienced new event during interval [30] | Nausea Vomiting and Diarrhea: m, number of patients who experienced new event during interval [31] | Nausea Vomiting and Diarrhea: m, number of patients who experienced new event during interval [32] | Nausea Vomiting and Diarrhea: m, number of patients who experienced new event during interval [33] | Nausea Vomiting and Diarrhea: m, number of patients who experienced new event during interval [34]
2.0%: Nausea Vomiting and Diarrhea: % patients who experienced new event during interval [5] | Nausea Vomiting and Diarrhea: % patients who experienced new event during interval [8] | Nausea Vomiting and Diarrhea: % patients who experienced new event during interval [10] | Nausea Vomiting and Diarrhea: % patients who experienced new event during interval [14] | Nausea Vomiting and Diarrhea: % patients who experienced new event during interval [15] | Nausea Vomiting and Diarrhea: % patients who experienced new event during interval [24] | Nausea Vomiting and Diarrhea: % patients who experienced new event during interval [30]
6.0%: Nausea Vomiting and Diarrhea: % patients who experienced new event during interval [6]
2: Nausea Vomiting and Diarrhea: m, number of patients who experienced new event during interval [3] | Nausea Vomiting and Diarrhea: m, number of patients who experienced new event during interval [4] | Nausea Vomiting and Diarrhea: m, number of patients who experienced new event during interval [7] | Nausea Vomiting and Diarrhea: m, number of patients who experienced new event during interval [9] | Nausea Vomiting and Diarrhea: m, number of patients who experienced new event during interval [11] | Nausea Vomiting and Diarrhea: m, number of patients who experienced new event during interval [25] | Nausea Vomiting and Diarrhea: m, number of patients who experienced new event during interval [27]
10: Nausea Vomiting and Diarrhea: m, number of patients who experienced new event during interval [20]
0: Nausea Vomiting and Diarrhea: m, number of patients who experienced new event during interval [18] | Nausea Vomiting and Diarrhea: m, number of patients who experienced new event during interval [28] | Nausea Vomiting and Diarrhea: m, number of patients who experienced new event during interval [29]
4.1%: Nausea Vomiting and Diarrhea: % patients who experienced new event during interval [9] | Nausea Vomiting and Diarrhea: % patients who experienced new event during interval [11]
m = 0; 0%: Nausea Vomiting and Diarrhea: % patients who experienced new event during interval [12] | Nausea Vomiting and Diarrhea: m, number of patients who experienced new event during interval [12] | Nausea Vomiting and Diarrhea: % patients who experienced new event during interval [13] | Nausea Vomiting and Diarrhea: m, number of patients who experienced new event during interval [13]
11.4%: Nausea Vomiting and Diarrhea: % patients who experienced new event during interval [22]
9: Nausea Vomiting and Diarrhea: m, number of patients who experienced new event during interval [2]
6: Nausea Vomiting and Diarrhea: m, number of patients who experienced new event during interval [22]
17: Nausea Vomiting and Diarrhea: m, number of patients who experienced new event during interval [19]
0.0%: Nausea Vomiting and Diarrhea: % patients who experienced new event during interval [18] | Nausea Vomiting and Diarrhea: % patients who experienced new event during interval [28] | Nausea Vomiting and Diarrhea: % patients who experienced new event during interval [29]
18.9%: Nausea Vomiting and Diarrhea: % patients who experienced new event during interval [20]
